Article PMC3779284
Read-outs that look alike come from different tables or passages of the source.

How the values were obtained:
[1] = target: Calmodulin fluorescently labelled with Alexa Fluor 488 (UniProt P0DP23); experiment: AUC
[2] = target: Calmodulin fluorescently labelled with Alexa Fluor 488 (UniProt P0DP23); experiment: AUC; remark: listed apart in the source

Kd [1] [nM]	percent free calmodulin at 1:0.5 CaM:nNOSred [1] [%]	percent free calmodulin at 1:0.5 CaM:nNOSred [2] [%]	Substance
167	30.9	40	nNOSred wt (rat neuronal nitric oxide synthase reductase domain, wild type) (domain or fragment)
468	64.6	–	nNOSred R753A (domain or fragment)
